Results from US20220024981A1 (Novartis, published 2022).
Bridge positions count the residues as written; N and C are the ends. Square brackets hold non-standard residues; d marks the D form. Bip = N[C@@H](Cc1ccc(-c2ccccc2)cc1)C(=O)O; Phe(4-Cl) = N[C@@H](Cc1ccc(Cl)cc1)C(=O)O; NMeF = CN[C@@H](Cc1ccccc1)C(=O)O; NMeE = CN[C@@H](CCC(=O)O)C(=O)O; hSer = N[C@@H](CCO)C(=O)O; NMeA = CN[C@@H](C)C(=O)O

B1: Ac*-F-V-A-T-T-F-(N-Me)A-B-(N-Me)A-K-A-P-C*-G-NH2 (peptide)
peptide: {CH2CO}-FVATTF[NMeA][Bip][NMeA]KAPCG-NH2
modifications: thioether N-13
SMILES: CC(C)[C@@H]1NC(=O)[C@H](Cc2ccccc2)NC(=O)CSC[C@@H](C(=O)NCC(N)=O)NC(=O)[C@@H]2CCCN2C(=O)[C@H](C)NC(=O)[C@H](CCCCN)NC(=O)[C@H](C)N(C)C(=O)[C@H](Cc2ccc(-c3ccccc3)cc2)NC(=O)[C@H](C)N(C)C(=O)[C@H](Cc2ccccc2)NC(=O)[C@H]([C@@H](C)O)NC(=O)[C@H]([C@@H](C)O)NC(=O)[C@H](C)NC1=O
notes: also called 1-22; Ex. No. 1-22
B2: Ac*-F-V-N-T-T-F-(N-Me)A-B-(N-Me)A-K-A-P-C*-G-NH2 (peptide)
peptide: {CH2CO}-FVNTTF[NMeA][Bip][NMeA]KAPCG-NH2
modifications: thioether N-13
SMILES: CC(C)[C@@H]1NC(=O)[C@H](Cc2ccccc2)NC(=O)CSC[C@@H](C(=O)NCC(N)=O)NC(=O)[C@@H]2CCCN2C(=O)[C@H](C)NC(=O)[C@H](CCCCN)NC(=O)[C@H](C)N(C)C(=O)[C@H](Cc2ccc(-c3ccccc3)cc2)NC(=O)[C@H](C)N(C)C(=O)[C@H](Cc2ccccc2)NC(=O)[C@H]([C@@H](C)O)NC(=O)[C@H]([C@@H](C)O)NC(=O)[C@H](CC(N)=O)NC1=O
notes: also called 1-23; Ex. No. 1-23
B3: Ac*-F-V-A-T-T-F-(N-Me)A-(p-Cl)F-(N-Me)A-N-A-P-C*-NH2 (peptide)
peptide: {CH2CO}-FVATTF[NMeA][Phe(4-Cl)][NMeA]NAPC-NH2
modifications: thioether N-13
SMILES: CC(C)[C@@H]1NC(=O)[C@H](Cc2ccccc2)NC(=O)CSC[C@@H](C(N)=O)NC(=O)[C@@H]2CCCN2C(=O)[C@H](C)NC(=O)[C@H](CC(N)=O)NC(=O)[C@H](C)N(C)C(=O)[C@H](Cc2ccc(Cl)cc2)NC(=O)[C@H](C)N(C)C(=O)[C@H](Cc2ccccc2)NC(=O)[C@H]([C@@H](C)O)NC(=O)[C@H]([C@@H](C)O)NC(=O)[C@H](C)NC1=O
notes: also called 2-5; Ex. No. 2-5
B4: Ac*-F-V-S-T-T-F-(N-Me)A-B-(N-Me)A-E-A-P-C*-G-NH2 (peptide)
peptide: FVSTTFAXAEAPCG
modifications: not fully specified; N-terminal acetyl (Ac*) joined by a sulfide bond to the side chain of Cys13 (cyclic); 7: L-(N-Me)Ala; 8: L-Bip; 9: L-(N-Me)Ala; C-terminal amide (NH2)
notes: also called 1-24; Ex. No. 1-24
B5: Ac*-F-V-P-T-T-F-(N-Me)A-B-(N-Me)A-E-A-P-C*-NHEt (peptide)
peptide: {CH2CO}-FVPTTF[NMeA][Bip][NMeA]EAPC-NHEt
modifications: thioether N-13
SMILES: CCNC(=O)[C@@H]1CSCC(=O)N[C@@H](Cc2ccccc2)C(=O)N[C@@H](C(C)C)C(=O)N2CCC[C@H]2C(=O)N[C@@H]([C@@H](C)O)C(=O)N[C@@H]([C@@H](C)O)C(=O)N[C@@H](Cc2ccccc2)C(=O)N(C)[C@@H](C)C(=O)N[C@@H](Cc2ccc(-c3ccccc3)cc2)C(=O)N(C)[C@@H](C)C(=O)N[C@@H](CCC(=O)O)C(=O)N[C@@H](C)C(=O)N2CCC[C@H]2C(=O)N1
notes: also called 3-2; Ex. No. 3-2
B6: Ac*-F-V-P-T-T-V-(N-Me)A-(p-Cl)F-(N-Me)A-E-A-P-C*-NH2 (peptide)
peptide: {CH2CO}-FVPTTV[NMeA][Phe(4-Cl)][NMeA]EAPC-NH2
modifications: thioether N-13
SMILES: CC(C)[C@@H]1NC(=O)[C@H]([C@@H](C)O)NC(=O)[C@H]([C@@H](C)O)NC(=O)[C@@H]2CCCN2C(=O)[C@H](C(C)C)NC(=O)[C@H](Cc2ccccc2)NC(=O)CSC[C@@H](C(N)=O)NC(=O)[C@@H]2CCCN2C(=O)[C@H](C)NC(=O)[C@H](CCC(=O)O)NC(=O)[C@H](C)N(C)C(=O)[C@H](Cc2ccc(Cl)cc2)NC(=O)[C@H](C)N(C)C1=O
notes: also called 2-6; Ex. No. 2-6
B7: Ac*-F-V-P-T-T-F-(N-Me)A-(p-Cl)F-(N-Me)A-D-A-P-C*-NH2 (peptide)
peptide: {CH2CO}-FVPTTF[NMeA][Phe(4-Cl)][NMeA]DAPC-NH2
modifications: thioether N-13
SMILES: CC(C)[C@@H]1NC(=O)[C@H](Cc2ccccc2)NC(=O)CSC[C@@H](C(N)=O)NC(=O)[C@@H]2CCCN2C(=O)[C@H](C)NC(=O)[C@H](CC(=O)O)NC(=O)[C@H](C)N(C)C(=O)[C@H](Cc2ccc(Cl)cc2)NC(=O)[C@H](C)N(C)C(=O)[C@H](Cc2ccccc2)NC(=O)[C@H]([C@@H](C)O)NC(=O)[C@H]([C@@H](C)O)NC(=O)[C@@H]2CCCN2C1=O
notes: also called 2-2; Ex. No. 2-2
B8: Ac*-F-V-N-T-T-F-(N-Me)A-B-(N-Me)A-(N-Me)E-A-P-C*-NHEt (peptide)
peptide: {CH2CO}-FVNTTF[NMeA][Bip][NMeA][NMeE]APC-NHEt
modifications: thioether N-13
SMILES: CCNC(=O)[C@@H]1CSCC(=O)N[C@@H](Cc2ccccc2)C(=O)N[C@@H](C(C)C)C(=O)N[C@@H](CC(N)=O)C(=O)N[C@@H]([C@@H](C)O)C(=O)N[C@@H]([C@@H](C)O)C(=O)N[C@@H](Cc2ccccc2)C(=O)N(C)[C@@H](C)C(=O)N[C@@H](Cc2ccc(-c3ccccc3)cc2)C(=O)N(C)[C@@H](C)C(=O)N(C)[C@@H](CCC(=O)O)C(=O)N[C@@H](C)C(=O)N2CCC[C@H]2C(=O)N1
notes: also called 3-1; Ex. No. 3-1
B9: Ac*-F-V-P-T-T-F-(N-Me)A-(p-Cl)F-(N-Me)A-P-A-P-C*-NH2 (peptide)
peptide: {CH2CO}-FVPTTF[NMeA][Phe(4-Cl)][NMeA]PAPC-NH2
modifications: thioether N-13
SMILES: CC(C)[C@@H]1NC(=O)[C@H](Cc2ccccc2)NC(=O)CSC[C@@H](C(N)=O)NC(=O)[C@@H]2CCCN2C(=O)[C@H](C)NC(=O)[C@@H]2CCCN2C(=O)[C@H](C)N(C)C(=O)[C@H](Cc2ccc(Cl)cc2)NC(=O)[C@H](C)N(C)C(=O)[C@H](Cc2ccccc2)NC(=O)[C@H]([C@@H](C)O)NC(=O)[C@H]([C@@H](C)O)NC(=O)[C@@H]2CCCN2C1=O
notes: also called 2-1; Ex. No. 2-1
B10: Ac*-F-V-HomoSer-T-T-F-(N-Me)A-(p-Cl)F-(N-Me)A-D-A-P-C*-NH2 (peptide)
peptide: {CH2CO}-FV[hSer]TTF[NMeA][Phe(4-Cl)][NMeA]DAPC-NH2
modifications: thioether N-13
SMILES: CC(C)[C@@H]1NC(=O)[C@H](Cc2ccccc2)NC(=O)CSC[C@@H](C(N)=O)NC(=O)[C@@H]2CCCN2C(=O)[C@H](C)NC(=O)[C@H](CC(=O)O)NC(=O)[C@H](C)N(C)C(=O)[C@H](Cc2ccc(Cl)cc2)NC(=O)[C@H](C)N(C)C(=O)[C@H](Cc2ccccc2)NC(=O)[C@H]([C@@H](C)O)NC(=O)[C@H]([C@@H](C)O)NC(=O)[C@H](CCO)NC1=O
notes: also called 2-3; Ex. No. 2-3
B11: Ac*-F-E-N-T-T-F-(N-Me)A-B-(N-Me)A-A-S-P-C*-G-NH2 (peptide)
peptide: {CH2CO}-FENTTF[NMeA][Bip][NMeA]ASPCG-NH2
modifications: thioether N-13
SMILES: C[C@@H]1NC(=O)[C@H](C)N(C)C(=O)[C@H](Cc2ccc(-c3ccccc3)cc2)NC(=O)[C@H](C)N(C)C(=O)[C@H](Cc2ccccc2)NC(=O)[C@H]([C@@H](C)O)NC(=O)[C@H]([C@@H](C)O)NC(=O)[C@H](CC(N)=O)NC(=O)[C@H](CCC(=O)O)NC(=O)[C@H](Cc2ccccc2)NC(=O)CSC[C@@H](C(=O)NCC(N)=O)NC(=O)[C@@H]2CCCN2C(=O)[C@H](CO)NC1=O
notes: also called 1-27; Ex. No. 1-27
B12: Ac*-F-V-D-T-T-F-(N-Me)A-B-(N-Me)A-E-S-P-C*-G-NH2 (peptide)
peptide: {CH2CO}-FVDTTF[NMeA][Bip][NMeA]ESPCG-NH2
modifications: thioether N-13
SMILES: CC(C)[C@@H]1NC(=O)[C@H](Cc2ccccc2)NC(=O)CSC[C@@H](C(=O)NCC(N)=O)NC(=O)[C@@H]2CCCN2C(=O)[C@H](CO)NC(=O)[C@H](CCC(=O)O)NC(=O)[C@H](C)N(C)C(=O)[C@H](Cc2ccc(-c3ccccc3)cc2)NC(=O)[C@H](C)N(C)C(=O)[C@H](Cc2ccccc2)NC(=O)[C@H]([C@@H](C)O)NC(=O)[C@H]([C@@H](C)O)NC(=O)[C@H](CC(=O)O)NC1=O
notes: also called 1-17; Ex. No. 1-17
B13: Ac*-F-V-S-T-T-B-(N-Me)A-B-(N-Me)A-D-R-P-C*-NH2 (peptide)
peptide: {CH2CO}-FVSTT[Bip][NMeA][Bip][NMeA]DRPC-NH2
modifications: thioether N-13
SMILES: CC(C)[C@@H]1NC(=O)[C@H](Cc2ccccc2)NC(=O)CSC[C@@H](C(N)=O)NC(=O)[C@@H]2CCCN2C(=O)[C@H](CCCNC(=N)N)NC(=O)[C@H](CC(=O)O)NC(=O)[C@H](C)N(C)C(=O)[C@H](Cc2ccc(-c3ccccc3)cc2)NC(=O)[C@H](C)N(C)C(=O)[C@H](Cc2ccc(-c3ccccc3)cc2)NC(=O)[C@H]([C@@H](C)O)NC(=O)[C@H]([C@@H](C)O)NC(=O)[C@H](CO)NC1=O
notes: also called 2-4; Ex. No. 2-4
B14: Ac*-F-V-D-T-T-A-(N-Me)F-B-(N-Me)A-E-A-P-C*-G-NH2 (peptide)
peptide: {CH2CO}-FVDTTA[NMeF][Bip][NMeA]EAPCG-NH2
modifications: thioether N-13
SMILES: CC(C)[C@@H]1NC(=O)[C@H](Cc2ccccc2)NC(=O)CSC[C@@H](C(=O)NCC(N)=O)NC(=O)[C@@H]2CCCN2C(=O)[C@H](C)NC(=O)[C@H](CCC(=O)O)NC(=O)[C@H](C)N(C)C(=O)[C@H](Cc2ccc(-c3ccccc3)cc2)NC(=O)[C@H](Cc2ccccc2)N(C)C(=O)[C@H](C)NC(=O)[C@H]([C@@H](C)O)NC(=O)[C@H]([C@@H](C)O)NC(=O)[C@H](CC(=O)O)NC1=O
notes: also called 1-16; Ex. No. 1-16
B15: Ac*-F-V-P-T-T-A-(N-Me)F-B-(N-Me)A-E-A-P-C*-G-NH2 (peptide)
peptide: {CH2CO}-FVPTTA[NMeF][Bip][NMeA]EAPCG-NH2
modifications: thioether N-13; not fully specified
notes: The three-letter form of the same entry prints L-Arg at position 11 where the one-letter form prints A; also called 1-21; Ex. No. 1-21
B16: Ac*-F-V-N-T-T-A-(N-Me)F-B-(N-Me)A-Q-A-P-C*-G-NH2 (peptide)
peptide: {CH2CO}-FVNTTA[NMeF][Bip][NMeA]QAPCG-NH2
modifications: thioether N-13
SMILES: CC(C)[C@@H]1NC(=O)[C@H](Cc2ccccc2)NC(=O)CSC[C@@H](C(=O)NCC(N)=O)NC(=O)[C@@H]2CCCN2C(=O)[C@H](C)NC(=O)[C@H](CCC(N)=O)NC(=O)[C@H](C)N(C)C(=O)[C@H](Cc2ccc(-c3ccccc3)cc2)NC(=O)[C@H](Cc2ccccc2)N(C)C(=O)[C@H](C)NC(=O)[C@H]([C@@H](C)O)NC(=O)[C@H]([C@@H](C)O)NC(=O)[C@H](CC(N)=O)NC1=O
notes: also called 1-18; Ex. No. 1-18

molecular target: T1, Human PCSK9 Alexa Fluor 647 (human, UniProt Q8NBP7 31-692, limits assumed, Alexa Fluor 647 label (site not stated)); test: TR-FRET competition: PCSK9-Alexa Fluor 647 vs LDLR ECD-Eu kryptate
T1 construct: Labelled tracer of the TR-FRET assay, 16 nM stock; also called proprotein convertase subtilisin/kexin type 9
Method: A Proxi plate-low volume assay plate was used for the assay. […] Following a 30 minute incubation, 5 uL of 4 nM Human LDLR extracellular domain-Europium Kryptate was added and the mixture was incubated for an additional 2 hours.
The TR-FRET signal was measured on an EnVision or PheraStar instrument with a 60 μs delay, 330 nm excitation and 665 nm emission (FRET), and 330 nm excitation and 615 nm (Europium). The FRET ratio (FRET/Europium) was used for calculations.

T1 sequence (Q8NBP7 31-692 limits assumed): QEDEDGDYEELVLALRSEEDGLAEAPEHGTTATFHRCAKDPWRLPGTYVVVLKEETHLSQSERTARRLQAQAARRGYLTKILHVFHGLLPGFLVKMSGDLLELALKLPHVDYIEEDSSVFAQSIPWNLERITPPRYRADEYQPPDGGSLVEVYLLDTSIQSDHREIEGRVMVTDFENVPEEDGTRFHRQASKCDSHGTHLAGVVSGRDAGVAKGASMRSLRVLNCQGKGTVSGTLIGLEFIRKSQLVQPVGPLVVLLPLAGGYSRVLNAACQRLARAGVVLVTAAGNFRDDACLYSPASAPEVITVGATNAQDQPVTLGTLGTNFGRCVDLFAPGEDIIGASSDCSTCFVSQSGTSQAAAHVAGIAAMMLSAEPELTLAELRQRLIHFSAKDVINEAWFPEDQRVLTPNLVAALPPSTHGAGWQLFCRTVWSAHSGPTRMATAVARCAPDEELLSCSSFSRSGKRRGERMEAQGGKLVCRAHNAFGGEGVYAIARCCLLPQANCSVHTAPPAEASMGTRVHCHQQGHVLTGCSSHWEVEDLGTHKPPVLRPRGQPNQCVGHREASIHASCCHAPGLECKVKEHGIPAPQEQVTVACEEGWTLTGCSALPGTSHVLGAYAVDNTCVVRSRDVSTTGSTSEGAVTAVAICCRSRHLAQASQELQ

Binder | IC50 [nM] | Maximum % inhibition [%]
B1 | 12 | 49
B2 | 22 | 36
B3 | 1.1 | 46
B4 | 6.8 | 70
B5 | 4.2 | 83
B6 | 5.4 | 83
B7 | 0.4 | 72
B8 | 85 | 61
B9 | 11.5 | 50
B10 | 0.04 | 75
{CH2CO}-FVPTT[Bip][NMeA][Bip][NMeA]EAPC-NHEt (thioether N-13, also called 3-3; Ex. No. 3-3) [Ac*-F-V-P-T-T-B-(N-Me)A-B-(N-Me)A-E-A-P-C*-NHEt] | 2.2 | 
B11 | 410 | 55
B12 | 17 | 91
B13 | 1.8 | 28
B14 | 7.4 | 91
B15 | 7.2 | 81
B16 | 11 | 53
